Non-standard residues stand in square brackets, D forms with d. No end group written: not given here. AEEA = NCCOCCOCC(=O)O
Experiments:
amyloid β1-42 (Aβ1-42) [1] = target: T1, amyloid β1-42 (Aβ1-42) (UniProt P05067 672-713); experiment: ELISA, peptide coated, Aβ1-42 added (FIG. 21)
T1 construct: domain: Aβ1-42; Added in solution at 150 nM in the ELISA; Aβ1-42 is a fragment of it; also called amyloid beta; the 42-amino acid form of Aβ
Description: (§1) BSA was from Sigma Aldrich. […] Plate coating was done at room temperature for 2 hours with shaking and then at 4° C. overnight. Plates were washed three times in PBST (PBS+0.05% tween), then blocked with 3% BSA in PBST for 1 hour at room temperature with shaking. […] Plates were then washed 4 times with PBST and monoclonal mouse anti-amyloid precursor protein/amyloid beta antibody, purchased from Cell Signaling Technology was added at a 1:500 dilution in 1% BSA in PBST and incubated for 1 hour at room temperature with shaking. Plates were washed 4× in PBST and donkey anti mouse HRP-conjugated secondary antibody from Jackson ImmunoResearch Laboratories was added at 1:10,000 in PBST and incubated 1 hour at room temperature with shaking, then washed 4 times in PBST. […] Sulfuric acid (5N) was added to each well to stop the reaction, and the absorbance at 492 nm was read on a Biotek Synergy II plate reader.

amyloid β1-42 (Aβ1-42) [2] = target: T1, amyloid β1-42 (Aβ1-42); experiment: ELISA, peptide coated at 5 µg/ml, 150 nM Aβ1-42 added, anti-Aβ antibody, A492 (FIG. 2)
Description: as §1

amyloid β1-42 (Aβ1-42) [3] = target: T1, amyloid β1-42 (Aβ1-42); experiment: ELISA, peptide coated, Aβ1-42 added, anti-Aβ antibody, absorbance at 492 nm (FIG. 21)
Description: as §1

amyloid β1-42 (Aβ1-42) [4] = target: T1, amyloid β1-42 (Aβ1-42); experiment: ELISA, peptide coated at 5 µg/ml, 150 nM Aβ1-42 added, anti-Aβ antibody, A492 (FIG. 3)
Description: as §1

amyloid β1-42 (Aβ1-42) [5] = target: T1, amyloid β1-42 (Aβ1-42); experiment: cell-based or functional assay

T1 sequence (P05067 672-713 limits assumed): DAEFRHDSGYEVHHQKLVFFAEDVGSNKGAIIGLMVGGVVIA

GTLCTVAGWGRVSMRRGTDTLRPRVQL [CG-derived mutant peptide CG119-144 E141PR]
binding result (amyloid β1-42 (Aβ1-42) [1]): binds

NQGRHFCGGALIHARFVMTAASCFQ (also called CAP3720-44) [CAP37-derived peptide 20-44 CC (wild-type)]
binding result (amyloid β1-42 (Aβ1-42) [2]): binds

GTLCTVAGWGSMRRGTDTLREVQL [CG-derived mutant peptide CG119-144 ΔR129V130]
binding result (amyloid β1-42 (Aβ1-42) [3]): no binding

[AEEA][AEEA]RRRRGTRCQVAGWGSQRSGGRLSRFPRFVNVR [5RMP-modified CAP37-derived peptide 120-146 QR]
binding result (amyloid β1-42 (Aβ1-42) [4]): binds

[AEEA][AEEA]RRRRGTRCQVAGWGSWRSGGRLSRFPRFVNVR [CAP37-derived peptide 120-146 WR 5RMP]
IC50 of inhibition of Aβ1-42 fibrillation (Thioflavin T fluorescence) (amyloid β1-42 (Aβ1-42) [5]): ~1000 nM
molar ratio peptide/Aβ1-42 at the IC50 of fibrillation (amyloid β1-42 (Aβ1-42) [5]): ~0.1 molar ratio

GTRCQVAGWGSQRSGGRLSRFPRFVNV [CAP37-derived peptide 120-146 QR (wild-type)]
binding result (amyloid β1-42 (Aβ1-42) [2]): binds

GTRCQVAGWGSWRSGGRLSRFPRFVNV [CAP37-derived peptide 120-146 WR (mutant)]
IC50 of inhibition of Aβ1-42 fibrillation (Thioflavin T fluorescence) (amyloid β1-42 (Aβ1-42) [5]): ~1000 nM
molar ratio peptide/Aβ1-42 at the IC50 of fibrillation (amyloid β1-42 (Aβ1-42) [5]): ~0.1 molar ratio

B1: cationic antimicrobial protein of 37 kDa (CAP37), full-length (enzyme, human, UniProt P20160 27-248, looked up)
chain: IVGGRKARPRQFPFLASIQNQGRHFCGGALIHARFVMTAASCFQSQNPGVSTVVLGAYDLRRRERQSRQTFSISSMSENGYDPQQNLNDLMLLQLDREANLTSSVTILPLPLQNATVEAGTRCQVAGWGSQRSGGRLSRFPRFVNVTVTPEDQCRPNNVCTGVLTRRGGICNGDGGTPLVCEGLAHGVASFSLGPCGRGPDFFTRVALFRDWIDGVLNNPGP
IC50 of inhibition of Aβ1-42 fibrillation (Thioflavin T fluorescence) (amyloid β1-42 (Aβ1-42) [5]): 876 nM
fold increase of the fibrillation IC50 in the presence of PMSF (amyloid β1-42 (Aβ1-42) [5]): 3.5 fold
molar ratio CAP37/Aβ1-42 at the IC50 of fibrillation (amyloid β1-42 (Aβ1-42) [5]): 0.091 molar ratio

GTLCTVAGWGRVSMRRGTDTLREVQL [CG-derived peptide CG119-144 (wild-type)]
binding result (amyloid β1-42 (Aβ1-42) [1]): binds

GTLCTVAGWGRVSMRRGTRTLREVQL [CG-derived mutant peptide CG119-144 D137R]
IC50 of inhibition of Aβ1-42 fibrillation (Thioflavin T fluorescence) (amyloid β1-42 (Aβ1-42) [5]): 3100 nM
molar ratio peptide/Aβ1-42 at the IC50 of fibrillation (amyloid β1-42 (Aβ1-42) [5]): 0.33 molar ratio

[AEEA][AEEA]RRRRNQGRHFCGGALIHARFVMTAASCFQR (cysteine pairing not given here, also called 20-44 CC 5RMP) [5RMP-modified CAP37-derived peptide 20-44 CC]
binding result (amyloid β1-42 (Aβ1-42) [4]): binds

B2: cathepsin G (CG), full-length (enzyme, human, UniProt P08311 21-244, looked up)
chain: IIGGRESRPHSRPYMAYLQIQSPAGQSRCGGFLVREDFVLTAAHCWGSNINVTLGAHNIQRRENTQQHITARRAIRHPQYNQRTIQNDIMLLQLSRRVRRNRNVNPVALPRAQEGLRPGTLCTVAGWGRVSMRRGTDTLREVQLRVQRDRQCLRIFGSYDPRRQICVGDRRERKAAFKGDSGGPLLCNNVAHGIVSYGKSSGVPPEVFTRVSSFLPWIRTTMRS
IC50 of inhibition of Aβ1-42 fibrillation (Thioflavin T fluorescence) (amyloid β1-42 (Aβ1-42) [5]): 3.8 nM
fold increase of the fibrillation IC50 in the presence of chymostatin (amyloid β1-42 (Aβ1-42) [5]): 17 fold
molar ratio CG/Aβ1-42 at the IC50 of fibrillation (amyloid β1-42 (Aβ1-42) [5]): 0.00038 molar ratio

From US20210115426A1 (BOARD OF REGENTS OF THE UNIVERSITY OF OKLAHOMA, published 2021)
